Publication PMC10832047

Target: HIV-1 capsid protein (CA), wild type (HIV-1 (NL4-3 / R9 clones))

## owl-monkey TRIMCyp (natural protein)
  TRIMCyp restriction assay: infectivity of control pseudoviruses with pure CA^WT cores in TZM-bl cells expressing TRIMCyp, 48 h (fold reduction in infection): 10
